Literature values in article PMC3197213.

Biological target: syntaxin-1 SNARE motif (Rattus norvegicus) (UniProt P32851)
Sequence (P32851 191-253): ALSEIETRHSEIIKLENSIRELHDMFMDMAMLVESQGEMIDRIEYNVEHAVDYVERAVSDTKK

Kd: 46 µM
Substance: Munc13-1 MUN domain (from UniProt Q62768)
